± gives the uncertainty stated by the source.
Assay: self-splicing fitness, log relative to wild type (ln ratio); higher = more splicing; Tetrahymena group I intron in knt gene, E. coli kanamycin selection, DiMSum; sequences stand for … in CUCUCU…GGAGGGAAAAGUUAUCAGGCAUGCACCUGGUAGCUAGUCUUUAAACCAAUAGAUUGCAUCGGUUUAAAAGGCAAGACCGUCAAAUUGCGGGAAAGGGGUCAACAGCCGUUCAGUACCAAGUCUCAGGGGAAACUUUGAGAUGGCCUUGCAAAGGGUAUGGUAAUAAGCUGACGGACAUGGUCCUAACCACGCAGCCAAGUCCUAAGUCAACAGAUCUUCUGUUGAUAUGGAUGCAGUUCACAGACUAAAUGUCGGUCGGGGAAGAUGUAUUCUUCUCAUAAGAUAUAGUCGGACCUCUCCUUAAUGGGAGCUAGCGGAUGAAGUGAUGCAACACUGGAGCCGCUGGGAACUAAUUUGUAUGCGAAAGUAUAUUGAUUAGUUUUGGAGUACUCGUGGUCG
In short: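 The eight P1ex-region nucleotides of an intron in the knt kanamycin-resistance gene on pET-22b(+) were all randomised and the library put into E. coli BL21(DE3). Six replicate transformations were grown overnight at 37°C or 30°C on LB agar with or without 25 μg/mL kanamycin, together with 100 μg/mL carbenicillin, 50 μM IPTG and 0.2% rhamnose. Colonies were pooled and amplicon-sequenced on an Illumina HiSeq 2500. Fitness from DiMSum is the error-weighted combination of wild-type-normalised replicate fold changes, kanamycin over none.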

Sequence | self-splicing fitness (ln) (30 °C) | self-splicing fitness (ln) (37 °C)
UGGCAGCAAUAUUACGGCCU | -1.91 ± 0.18 | -1.57 ± 0.18
UGGCAGCAAUAUUACGGGAA | -2.17 ± 0.13 | -0.784 ± 0.1
UGGCAGCAAUAUUACGGUAG | -0.874 ± 0.062 | -0.684 ± 0.084
UGGCAGCAAUAUUACGGUCC | -0.382 ± 0.16 | 0.88 ± 0.13
UGGCAGCAAUAUUACGUAAA | -0.723 ± 0.077 | -0.922 ± 0.093
UGGCAGCAAUAUUACGUACA | 0.117 ± 0.071 | 0.116 ± 0.1
UGGCAGCAAUAUUACGUAUC | -3.85 ± 0.31 | -1.82 ± 0.25
UGGCAGCAAUAUUACGUCAG | -0.12 ± 0.074 | -0.817 ± 0.11
UGGCAGCAAUAUUACGUCUC | -1.64 ± 0.11 | -0.21 ± 0.13
UGGCAGCAAUAUUACGUUGC | -3.77 ± 0.19 | -2.37 ± 0.13
UGGGAGCAAUAUUACGAGUG | -2.24 ± 0.31 | -0.927 ± 0.28
UGGGAGCAAUAUUACGCAUC | -3 ± 0.32 | -2.58 ± 0.38
UGGGAGCAAUAUUACGCGGA |  | -2.73 ± 0.34
UGGGAGCAAUAUUACGCUAG | -2.79 ± 0.32 | -1.99 ± 0.36
UGGGAGCAAUAUUACGGCAU |  | -2.47 ± 0.45
UGGGAGCAAUAUUACGUAAG | -0.459 ± 0.15 | -1.12 ± 0.2
UGGGAGCAAUAUUACGUACU |  | -2.02 ± 0.33
UGGGAGCAAUAUUACGUCUA | -1.22 ± 0.12 | -0.187 ± 0.16
UGGGAGCAAUAUUACGUCUC | -3.13 ± 0.32 | -2.93 ± 0.44
UGGGAGCAAUAUUACGUGUG | -1.75 ± 0.22 | -2.26 ± 0.33
UGGGAGCAAUAUUACGUUUG | -3.75 ± 0.27 | -2.14 ± 0.27

Sequence | self-splicing fitness (ln) (30 °C) | self-splicing fitness (ln) (37 °C)
UGGUAGCAAUAUUACGACGC |  | 1.38 ± 0.5
UGGUAGCAAUAUUACGCAGA | -2.45 ± 0.16 | -0.684 ± 0.1
UGGUAGCAAUAUUACGCAUA | -1.11 ± 0.22 | -0.547 ± 0.17
UGGUAGCAAUAUUACGCCAA | -1.77 ± 0.15 | -0.723 ± 0.12
UGGUAGCAAUAUUACGCUAU | -4.7 ± 0.42 | -2.87 ± 0.23
UGGUAGCAAUAUUACGGAAU |  | -0.962 ± 0.23
UGGUAGCAAUAUUACGGCAG | -1.15 ± 0.13 | 0.129 ± 0.17
UGGUAGCAAUAUUACGGCUG | -1.99 ± 0.15 | -0.886 ± 0.26
UGGUAGCAAUAUUACGGGCA | -0.0931 ± 0.13 | 0.591 ± 0.13
UGGUAGCAAUAUUACGGGCC | -1.4 ± 0.23 | 
UGGUAGCAAUAUUACGGGGA | -2.58 ± 0.26 | -2.18 ± 0.18
UGGUAGCAAUAUUACGGGUC | -3.15 ± 0.4 | -2.9 ± 0.47
UGGUAGCAAUAUUACGGUAA | -1.34 ± 0.18 | -0.209 ± 0.12
UGGUAGCAAUAUUACGGUCA | -0.695 ± 0.097 | -0.176 ± 0.1
UGGUAGCAAUAUUACGGUGU | -4.11 ± 0.31 | -0.563 ± 0.13
UGGUAGCAAUAUUACGUAUA | -1.51 ± 0.14 | -0.00881 ± 0.14
UGGUAGCAAUAUUACGUCAC |  | -1.37 ± 0.45
UGGUAGCAAUAUUACGUCUG | -0.683 ± 0.11 | 0.409 ± 0.17
UGGUAGCAAUAUUACGUUCC | -2.33 ± 0.23 | -1.19 ± 0.36
UGGUAGCAAUAUUACGUUGG | -1.4 ± 0.12 | -1.7 ± 0.14
UGUAAGCAAUAUUACGAGAU | -3.71 ± 0.3 | -3.14 ± 0.37

Sequence | self-splicing fitness (ln) (30 °C) | self-splicing fitness (ln) (37 °C)
UGUAAGCAAUAUUACGAUAG | -1.44 ± 0.25 | -1.87 ± 0.29
UGUAAGCAAUAUUACGAUGA | -0.986 ± 0.098 | -0.393 ± 0.13
UGUAAGCAAUAUUACGCAGC | -3.28 ± 0.35 | -1.44 ± 0.19
UGUAAGCAAUAUUACGCAUC | -3.16 ± 0.31 | -1.74 ± 0.23
UGUAAGCAAUAUUACGCCGU | -2.48 ± 0.26 | -3.08 ± 0.47
UGUAAGCAAUAUUACGCGGA | -1.91 ± 0.26 | -1.29 ± 0.2
UGUAAGCAAUAUUACGGCAC | -1.49 ± 0.24 | -1.48 ± 0.42
UGUAAGCAAUAUUACGGCCA | -0.0492 ± 0.076 | -0.0953 ± 0.12
UGUAAGCAAUAUUACGGCUU | -1.01 ± 0.12 | -1.15 ± 0.15
UGUAAGCAAUAUUACGGGCA | -0.98 ± 0.09 | 0.521 ± 0.1
UGUAAGCAAUAUUACGUGAC | -3.47 ± 0.33 | -1.77 ± 0.23
UGUAAGCAAUAUUACGUGGC | -4.03 ± 0.4 | -2.26 ± 0.37
UGUAAGCAAUAUUACGUUAC | -2.91 ± 0.22 | -3.12 ± 0.37
UGUAAGCAAUAUUACGUUAG | -1.56 ± 0.14 | -0.556 ± 0.17
UGUAAGCAAUAUUACGUUCG | 0.188 ± 0.095 | 0.33 ± 0.12
UGUAAGCAAUAUUACGUUUG | -1.24 ± 0.069 | -0.871 ± 0.084
UGUCAGCAAUAUUACGACUU | -1.14 ± 0.1 | 0.303 ± 0.16
UGUCAGCAAUAUUACGAGGU | -2.83 ± 0.33 | -2.81 ± 0.41
UGUCAGCAAUAUUACGAGUU | -1.33 ± 0.14 | -1.44 ± 0.2
UGUCAGCAAUAUUACGAUAA | -0.114 ± 0.06 | 0.438 ± 0.074
